Experimental data from patent publication US20190212291.

How the values were obtained:
PB2 = test system: T1, PB2
T1 sequence: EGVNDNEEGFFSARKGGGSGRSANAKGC

PEG-T39-Q = test system: T2, PEG-T39-Q
T2 sequence: GGGSGRSANAKGKGC

Sequence of MMP9 (chain, as listed by the source): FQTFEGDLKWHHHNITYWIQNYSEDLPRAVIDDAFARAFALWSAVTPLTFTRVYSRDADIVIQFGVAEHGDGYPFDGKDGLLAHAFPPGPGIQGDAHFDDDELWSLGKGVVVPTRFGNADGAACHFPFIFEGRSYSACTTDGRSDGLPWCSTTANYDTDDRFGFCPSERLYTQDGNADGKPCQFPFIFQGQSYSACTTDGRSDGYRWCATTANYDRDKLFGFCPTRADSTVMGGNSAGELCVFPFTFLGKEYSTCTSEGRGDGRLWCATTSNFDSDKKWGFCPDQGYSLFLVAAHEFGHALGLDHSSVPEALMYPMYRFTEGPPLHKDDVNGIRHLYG
Sequence of HPN (chain, as listed by the source): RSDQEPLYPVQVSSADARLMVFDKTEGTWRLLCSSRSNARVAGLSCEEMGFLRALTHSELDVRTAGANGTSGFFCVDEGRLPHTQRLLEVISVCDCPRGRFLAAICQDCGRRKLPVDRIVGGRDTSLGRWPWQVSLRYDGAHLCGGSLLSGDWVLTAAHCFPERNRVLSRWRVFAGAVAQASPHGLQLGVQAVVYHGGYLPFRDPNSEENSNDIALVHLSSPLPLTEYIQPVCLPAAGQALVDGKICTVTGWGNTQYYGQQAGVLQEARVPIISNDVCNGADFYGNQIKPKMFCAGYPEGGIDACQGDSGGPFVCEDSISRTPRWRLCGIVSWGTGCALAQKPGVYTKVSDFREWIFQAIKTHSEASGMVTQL
Sequence of MMP3 (chain, as listed by the source): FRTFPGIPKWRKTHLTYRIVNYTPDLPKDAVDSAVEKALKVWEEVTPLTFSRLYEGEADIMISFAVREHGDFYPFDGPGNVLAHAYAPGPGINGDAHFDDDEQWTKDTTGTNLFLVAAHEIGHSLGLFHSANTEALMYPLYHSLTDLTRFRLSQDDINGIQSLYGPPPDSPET
Sequence of MMP10 (chain, as listed by the source): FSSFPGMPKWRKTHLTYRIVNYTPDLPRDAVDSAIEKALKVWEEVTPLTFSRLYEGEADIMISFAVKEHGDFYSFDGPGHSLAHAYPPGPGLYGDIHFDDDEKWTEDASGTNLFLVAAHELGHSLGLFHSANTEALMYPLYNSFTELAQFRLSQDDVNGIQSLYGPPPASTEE

HPN
Top hit (cleavage of PEG-coupled FRET substrate by recombinant proteases) (PEG-T58-Q): HPN
Top hit (cleavage of PEG-coupled FRET substrate by recombinant proteases) (PEG-T48-Q): HPN

KLK2
Top hit (cleavage of PEG-coupled FRET substrate by recombinant proteases) (PEG-T38-Q): KLK2
Top hit (cleavage of PEG-coupled FRET substrate by recombinant proteases) (PEG-T2-Q): KLK2
Second hit (cleavage of PEG-coupled FRET substrate by recombinant proteases) (PEG-T48-Q): KLK2

KLK3
Second hit (cleavage of PEG-coupled FRET substrate by recombinant proteases) (PEG-T51-Q): KLK3
Second hit (cleavage of PEG-coupled FRET substrate by recombinant proteases) (PEG-T2-Q): KLK3

MMP3
Second hit (cleavage of PEG-coupled FRET substrate by recombinant proteases) (PEG-T56-Q): MMP3
Top hit (cleavage of PEG-coupled FRET substrate by recombinant proteases) (PEG-T43-Q): MMP3

MMP9
Top hit (cleavage of PEG-coupled FRET substrate by recombinant proteases) (PEG-T7-Q): MMP9
Top hit (cleavage of PEG-coupled FRET substrate by recombinant proteases) (PEG-T3-Q): MMP9
Top hit (cleavage of PEG-coupled FRET substrate by recombinant proteases) (PEG-T1-Q): MMP9

MMP10
Top hit (cleavage of PEG-coupled FRET substrate by recombinant proteases) (PEG-T56-Q): MMP10

MMP13
Second hit (cleavage of PEG-coupled FRET substrate by recombinant proteases) (PEG-T54-Q): MMP13
Top hit (cleavage of PEG-coupled FRET substrate by recombinant proteases) (PEG-T24-Q): MMP13
substrate cleavage (PEG-T24-Q): selectively cleaved by MMP13 and uPA
substrate cleavage in vitro (PEG-T24-Q): in vitro, these substrates are cleaved by proteases overexpressed in PC3 cells, MMP13 and uPA
substrate cleavage assay (SB14): MMP13 substrate, expressed by PC3

uPA
substrate cleavage assay (PB2): uPA substrate, expressed by PC3
Top hit (cleavage of PEG-coupled FRET substrate by recombinant proteases) (PEG-T39-Q): uPA
substrate cleavage (PEG-T39-Q): selectively cleaved by MMP13 and uPA
substrate cleavage in vitro (PEG-T39-Q): in vitro, these substrates are cleaved by proteases overexpressed in PC3 cells, MMP13 and uPA
